Assay results: patent US20220267441A1 (VOR BIOPHARMA, published 2022)
Changes are numbered by the printed parent chain. Numbers in names are those of the source. Like-named read-outs stand apart in the source and are kept apart here.

How the values were obtained:
[1] = molecular target: T1, purified human CD45 ectodomain (human CD45RABC antigen) (human, UniProt P08575 26-577); assay: BLI (Octet Red96), antibody on anti-human Fc sensor, 100 nM human CD45 ectodomain, 1:1 fit
T1 construct: also called hCD45
T1 sequence: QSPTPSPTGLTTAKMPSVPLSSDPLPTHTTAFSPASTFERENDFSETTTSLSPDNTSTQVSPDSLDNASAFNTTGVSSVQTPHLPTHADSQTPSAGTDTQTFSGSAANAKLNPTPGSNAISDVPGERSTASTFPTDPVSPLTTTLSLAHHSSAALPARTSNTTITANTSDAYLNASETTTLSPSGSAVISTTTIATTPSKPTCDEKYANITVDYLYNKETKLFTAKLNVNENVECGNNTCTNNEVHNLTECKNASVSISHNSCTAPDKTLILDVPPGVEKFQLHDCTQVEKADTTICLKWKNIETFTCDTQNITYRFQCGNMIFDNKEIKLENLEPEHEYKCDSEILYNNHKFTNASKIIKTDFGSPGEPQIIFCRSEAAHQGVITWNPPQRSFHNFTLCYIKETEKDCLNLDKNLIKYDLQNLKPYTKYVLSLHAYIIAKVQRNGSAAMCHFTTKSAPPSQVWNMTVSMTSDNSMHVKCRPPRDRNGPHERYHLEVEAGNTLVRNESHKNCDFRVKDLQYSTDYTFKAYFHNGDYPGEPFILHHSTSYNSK

[2] = molecular target: T2, cynomolgus CD45 on live cells (primary cynomolgus PBMCs) (cynomolgus monkey); assay: flow cytometry on PBMCs; cyno EC50 against human EC50
T2 construct: Endogenous CD45 on PBMCs; also called cyno CD45; Cyno PBMC
T2 chain: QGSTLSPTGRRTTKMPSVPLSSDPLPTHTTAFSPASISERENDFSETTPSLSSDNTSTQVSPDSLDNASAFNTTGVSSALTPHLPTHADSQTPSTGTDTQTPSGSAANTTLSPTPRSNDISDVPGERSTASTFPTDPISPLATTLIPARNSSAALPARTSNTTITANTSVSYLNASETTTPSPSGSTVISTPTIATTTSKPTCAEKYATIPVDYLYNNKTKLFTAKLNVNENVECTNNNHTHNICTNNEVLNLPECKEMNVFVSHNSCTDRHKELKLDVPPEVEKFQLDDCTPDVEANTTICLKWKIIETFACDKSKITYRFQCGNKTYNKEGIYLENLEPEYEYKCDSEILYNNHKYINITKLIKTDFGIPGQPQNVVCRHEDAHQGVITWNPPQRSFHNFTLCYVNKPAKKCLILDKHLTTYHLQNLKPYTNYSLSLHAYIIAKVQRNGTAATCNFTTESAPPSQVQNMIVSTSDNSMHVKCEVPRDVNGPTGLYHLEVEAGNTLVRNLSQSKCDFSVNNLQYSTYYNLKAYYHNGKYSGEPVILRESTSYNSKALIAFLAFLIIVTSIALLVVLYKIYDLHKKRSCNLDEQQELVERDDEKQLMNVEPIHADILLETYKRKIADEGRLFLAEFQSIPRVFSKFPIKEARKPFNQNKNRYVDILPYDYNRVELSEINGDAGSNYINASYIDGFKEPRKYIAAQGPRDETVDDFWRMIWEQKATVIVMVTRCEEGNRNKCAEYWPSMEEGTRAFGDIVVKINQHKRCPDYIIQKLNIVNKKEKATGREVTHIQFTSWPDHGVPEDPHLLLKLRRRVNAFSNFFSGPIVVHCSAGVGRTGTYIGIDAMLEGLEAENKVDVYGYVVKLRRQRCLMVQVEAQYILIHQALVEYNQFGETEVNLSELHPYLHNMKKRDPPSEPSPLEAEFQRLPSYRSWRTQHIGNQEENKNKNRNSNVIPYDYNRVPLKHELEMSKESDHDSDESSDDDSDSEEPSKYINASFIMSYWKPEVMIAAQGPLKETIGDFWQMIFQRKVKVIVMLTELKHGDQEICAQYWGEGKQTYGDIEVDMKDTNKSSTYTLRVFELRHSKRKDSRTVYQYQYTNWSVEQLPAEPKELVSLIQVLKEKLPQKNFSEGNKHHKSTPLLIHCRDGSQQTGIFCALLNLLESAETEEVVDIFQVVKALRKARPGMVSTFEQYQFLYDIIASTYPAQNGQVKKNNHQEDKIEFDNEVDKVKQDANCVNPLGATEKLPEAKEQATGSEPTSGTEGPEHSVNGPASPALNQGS

[3] = molecular target: T2, cynomolgus CD45 on live cells (primary …); assay: flow cytometry on cynomolgus PBMCs, overnight 37 C, AF488 anti-human IgG
[4] = molecular target: T2, cynomolgus CD45 on live cells (primary …); assay: as above
[5] = molecular target: T3, human CD45 on live cells (REH-1 cells, primary human PBMCs) (human, UniProt P08575 26-1306); assay: flow cytometry on human PBMCs, overnight 37 C, AF488 anti-human IgG
T3 construct: Endogenous CD45
T3 sequence: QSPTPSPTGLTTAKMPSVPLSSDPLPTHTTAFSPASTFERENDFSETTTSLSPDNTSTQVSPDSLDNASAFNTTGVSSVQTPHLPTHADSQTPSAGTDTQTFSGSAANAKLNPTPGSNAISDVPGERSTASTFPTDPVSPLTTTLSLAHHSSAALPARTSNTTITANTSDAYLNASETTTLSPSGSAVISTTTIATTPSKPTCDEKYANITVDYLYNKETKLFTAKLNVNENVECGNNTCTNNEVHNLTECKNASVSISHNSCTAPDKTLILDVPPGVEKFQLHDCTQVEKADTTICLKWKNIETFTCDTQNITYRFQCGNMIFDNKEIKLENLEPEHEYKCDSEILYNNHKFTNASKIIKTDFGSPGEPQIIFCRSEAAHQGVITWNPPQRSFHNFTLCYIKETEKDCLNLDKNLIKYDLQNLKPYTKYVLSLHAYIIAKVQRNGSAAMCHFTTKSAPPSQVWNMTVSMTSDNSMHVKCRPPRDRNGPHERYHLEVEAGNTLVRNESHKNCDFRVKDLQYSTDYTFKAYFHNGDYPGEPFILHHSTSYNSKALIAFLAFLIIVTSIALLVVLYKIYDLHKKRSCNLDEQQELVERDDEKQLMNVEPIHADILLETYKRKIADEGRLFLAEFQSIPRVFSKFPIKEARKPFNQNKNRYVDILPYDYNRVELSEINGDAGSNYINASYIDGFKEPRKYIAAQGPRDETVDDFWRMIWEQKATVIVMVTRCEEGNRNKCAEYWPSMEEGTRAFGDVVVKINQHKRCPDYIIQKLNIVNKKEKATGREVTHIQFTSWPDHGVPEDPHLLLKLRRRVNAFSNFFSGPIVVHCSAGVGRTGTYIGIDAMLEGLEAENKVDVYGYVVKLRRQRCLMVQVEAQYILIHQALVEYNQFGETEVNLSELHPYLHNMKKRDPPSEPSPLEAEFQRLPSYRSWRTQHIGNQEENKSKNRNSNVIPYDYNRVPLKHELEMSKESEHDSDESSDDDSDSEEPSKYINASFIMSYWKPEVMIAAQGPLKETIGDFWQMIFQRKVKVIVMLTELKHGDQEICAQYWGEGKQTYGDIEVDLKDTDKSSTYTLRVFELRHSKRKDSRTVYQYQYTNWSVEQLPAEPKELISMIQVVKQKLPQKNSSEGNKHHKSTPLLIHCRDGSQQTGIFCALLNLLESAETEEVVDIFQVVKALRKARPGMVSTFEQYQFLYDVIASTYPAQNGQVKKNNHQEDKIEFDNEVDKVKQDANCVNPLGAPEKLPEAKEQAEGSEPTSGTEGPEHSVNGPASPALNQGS

[6] = molecular target: T3, human CD45 on live cells (REH-1 cells, …); assay: as above; remark: listed apart in the source
[7] = molecular target: T2, cynomolgus CD45 on live cells (primary …); assay: flow cytometry on PBMCs; cyno EC50 against human EC50
[8] = molecular target: T2, cynomolgus CD45 on live cells (primary …); assay: flow cytometry on cynomolgus PBMCs, overnight 37 C, AF488 anti-human IgG
[9] = molecular target: T3, human CD45 on live cells (REH-1 cells, …); assay: flow cytometry on human PBMCs, overnight 37 C, AF488 anti-human IgG; remark: listed apart in the source
[10] = molecular target: T2, cynomolgus CD45 on live cells (primary …); assay: flow cytometry on PBMCs; cyno EC50 against human EC50
[11] = molecular target: T1, purified human CD45 ectodomain (human …); assay: BLI (Octet Red96), IgG on anti-human Fc sensor, 100 nM CD45 ectodomain, 1:1 fit
[12] = molecular target: T3, human CD45 on live cells (REH-1 cells, …); assay: flow cytometry on human PBMCs, overnight 37 C, AF488 anti-human IgG; remark: listed apart in the source
[13] = molecular target: T3, human CD45 on live cells (REH-1 cells, …); assay: flow cytometry on REH-1 cells, overnight 37 C, AF488 anti-human IgG
[14] = molecular target: T2, cynomolgus CD45 on live cells (primary …); assay: flow cytometry on cynomolgus PBMCs, overnight 37 C, AF488 anti-human IgG

B1: Antibody B (AbB) (antibody, IgG1, V domains shown)
VH: EVQLVESGGGLVQPGGSLRLSCAASGFTFTNFWMAWIRQAPGKGLEWVASISSSGGSIYYPDSVKDRFTISRDNSKNTLYLQMNSLRAEDTAVYYCVKFHHYSGGGDAWGQGTLVTVSS
VL: DIQMTQSPSSLSASVGDRVTITCKASQNINKYLDWYQQKPGKAPKLLIHYTNNLHTGIPSRFSGSGSGTDYTLTISSLQPEDFATYYCLQHSSRWTFGGGTKVEIK
notes: also called humanized clone AbB
[1]
  Kd: 5.46 nM
  koff: 0.000239 s⁻¹
  kon: 43800 M⁻¹ s⁻¹
[2]
  Fold Cyno v/s Human (EC50): 1.9 fold
[3]
  EC50: 1.42 nM
[4]
  EC50: 1.12 nM
[5]
  EC50: 0.67 nM
[6]
  EC50: 0.76 nM
[7]
  Fold Cyno vs Human (EC50): 1.7 fold

B2: AbA_D265C_LALA_H435A (antibody, human IgG1, kappa, L234A L235A, V domains shown)
VH: EVQLLESGGGLVQPGGSLRLSCAASGFTFNNYWMTWVRQAPGKGLEWVSSISSSGGSIYYPDRVKGRFTISRDNSKNTLYLQMNSLRAEDTAVYYCARDERWAGAMDAWGQGTTVTVSS
VL: DIQMTQSPSSLSASVGDRVTITCKASQNINKNLDWYQQKPGKAPKLLIYETNNLQTGVPSRFSGSGSGTDFTLTISSLQPEDFATYYCYQHNSRFTFGQGTKLEIKR
notes: also called Fc variant of AbA
[8]
  EC50: 3.4 nM
[9]
  EC50: 2.3 nM
[10]
  Cyno/Human Ratio (EC50): 1.49 ratio

B3: AbB_D265C_LALA_H435A (antibody, human IgG1, kappa, L234A L235A, V domains shown)
VH: B1 VH
VL: DIQMTQSPSSLSASVGDRVTITCKASQNINKYLDWYQQKPGKAPKLLIHYTNNLHTGIPSRFSGSGSGTDYTLTISSLQPEDFATYYCLQHSSRWTFGGGTKVEIKR
notes: also called Fc variant of AbB
[8]
  EC50: 2.9 nM
[9]
  EC50: 2.2 nM
[10]
  Cyno/Human Ratio (EC50): 1.36 ratio

B4: AbC_D265C_LALA_H435A (antibody, human IgG1, kappa, L234A L235A, V domains shown)
VH: EVQLVESGGGLVQPGGSLRLSCAASGFTFNNYWMTWVRQAPGKGLEWVSSISSSGGSIYYPDSVKDRFTISRDNAKNSLYLQMNSLRAEDMAVYYCARLYYYDGGGDAWGQGTLVTVSS
VL: B3 VL with D1G, N28D, H49Y, Y50N, S92I
notes: also called Fc variant of AbC
[8]
  EC50: 3.3 nM
[9]
  EC50: 2.2 nM
[10]
  Cyno/Human Ratio (EC50): 1.49 ratio

B5: Antibody 1 (Ab1) (antibody, V domains shown)
VH: QVQLVESGGGLVKPGGSLRLSCAASGFTFSSYSMNWVRQAPGKGLEWVSYISSSSSTIYYADSVKGRFTISRDNAKNSLYLQMNSLRAEDTAVYYCARGGQYYYDSSRYGEVAFDIWGQGTMVTVSS
VL: not shown
notes: Fully human IgG from yeast display; also called Parent 1; parent clone Ab1
[11]
  koff: 0.0499 s⁻¹
  kon: 458000 M⁻¹ s⁻¹

B6: Ab5 (D265C LALA H435A) (antibody, human IgG1, kappa, L234A L235A, V domains shown)
VH: B5 VH with Q1E, K13Q, S30E, S31A, S53L, S55G, S56A, Y59H, D105T, R108D
VL: DIVMTQSPLSLPVTPGEPASISCRSSQSLVSSGYNYLDWYLQKPGQSPQLLIYFGSSRASGVPDRFSGSGSGTDFTLKISRVEAEDVGVYYCMQRRRTPWSFGGGTKVEIKR
[12]
  EC50: 1.4 nM
[13]
  EC50: 0.3 nM
[14]
  EC50: 1.3 nM

B7: Ab7 (D265C LALA H435A) (antibody, human IgG1, kappa, L234A L235A, V domains shown)
VH: B5 VH with S30G, S31G, S53I, S55G, S56A, Y59T, R108D
VL: DIVMTQSPLSLPVTPGEPASISCRSSQSLVSSGYNYLDWYLQKPGQSPQLLIYFGSSRASGVPDRFSGSGSGTDFTLKISRVEAEDVGVYYCMQRRRTPPFTFGGGTKVEIKR
[12]
  EC50: 1 nM
[13]
  EC50: 0.2 nM
[14]
  EC50: 1.3 nM
